# Substrate: Cc1c(CC(=O)NCCCC[C@H](NC(=O)CCN)C(=O)O)c(=O)oc2cc(N)ccc12
# Experiment: cells, lysate or membranes
# Conditions: HBSS with 20 mM Hepes, 300 mOsmol/kg (control); fluorescent substrate 0-500 μM
protein,measurement,value
PepT2 (Oreochromis mossambicus) (protein) MGKKLFGTNYPVSICFIVVNEFCERFSYYGMKALLTLYFLNYLKWDKDLSTAVYHAFSGLCYFTPILGAFIADSWLGKYKTIIYLSIVYVIGHVVKSVGAIPTVGSTELHIALSMSGLILIALGTGGIKPCVAAFGGDQFGEEHITERQKFFSIFYMSINAGSFLSTIITPILRGDVQCFGGDCYALAFGVPAALMVVALVVFIAGSSLYKRTPPQGNILWEVCNCIGFALKNRWNKSKHDSPRQHWLDWAEEKYSMRLIQEIKMVLRVLVLYIPLPMFWALFDQQGSRWTLQATRMNLAFGNSFAIKPDQMQMLNALLILVFVPIFDLIIYPLVRLCGLKITPLRKMAVGMVFAALAFGAATLVEVNVVKTVVNPAPAGKCLLQVVNLAKGDVSLKAPGTDLFLQSIKYLEDPPGYETVPLSNGELNLEVTGVNGETFSATQKVEEKKAYSVIIYPDAAGITYTLVEDHITKNEDGNPLLRFLNTQPEALNVTVGDKNFYMSSGYNVTHNKTVQRGEYTHATCISNSGKTSKLNLGLLDFGACYTVILTEEAGEIVPHKIEDVKANNVHIAYQIPQYILITAGEVMFSITGLEFSYSQAPANMKSVLQAGWLLTVAFGNVIVLIVAEGAGLEQWIEFLLFACLLLGVCIIFSIMAHFYTYVDPEEMEKLYLENSVKEEDDSDFKKKNNEIQLNKTGKSTRM,Km,178.78 ± 19.78 µM
